Numbering of substitutions follows the chain as printed. Where two headings read alike, the source gives them in different places.
T1: human 2Ig-B7H3 (B7H3-2Ig-His) (human, UniProt Q5ZPR3 29-466)
T1 construct: Recombinant His-tagged protein immobilised on a CM5 chip; also called 21g-B7H3; B7H3-21g-His; not shown: His tag
T1 sequence: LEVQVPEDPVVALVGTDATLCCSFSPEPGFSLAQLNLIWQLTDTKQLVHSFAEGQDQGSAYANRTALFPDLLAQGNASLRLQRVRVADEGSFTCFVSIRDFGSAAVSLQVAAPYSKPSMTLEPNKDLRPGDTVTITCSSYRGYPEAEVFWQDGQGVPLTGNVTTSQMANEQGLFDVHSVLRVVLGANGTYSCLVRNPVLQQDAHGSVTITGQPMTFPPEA

T2: human 4Ig-B7H3 (B7H3-4Ig-His) (human, UniProt Q5ZPR3 29-466)
T2 construct: Recombinant His-tagged protein immobilised on a CM5 chip; also called 41g-B7H3; human 4Ig-B7-H3 (dominant isoform); not shown: His tag
T2 sequence: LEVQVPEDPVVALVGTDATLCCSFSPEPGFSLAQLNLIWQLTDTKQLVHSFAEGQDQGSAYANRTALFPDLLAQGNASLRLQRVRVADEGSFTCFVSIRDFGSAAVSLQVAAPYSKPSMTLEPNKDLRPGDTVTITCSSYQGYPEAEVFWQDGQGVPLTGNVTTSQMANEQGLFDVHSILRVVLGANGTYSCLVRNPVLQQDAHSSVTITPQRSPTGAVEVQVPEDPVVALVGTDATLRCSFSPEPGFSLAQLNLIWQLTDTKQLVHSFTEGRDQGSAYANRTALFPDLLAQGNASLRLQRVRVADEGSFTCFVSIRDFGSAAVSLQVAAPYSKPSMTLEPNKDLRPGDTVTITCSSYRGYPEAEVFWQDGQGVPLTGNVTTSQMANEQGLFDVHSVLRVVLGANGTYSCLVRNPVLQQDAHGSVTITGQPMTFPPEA

B1: 8H9 antibody conjugated with p-SCN-Bn-DOTA, CAR 0.8 (antibody, mouse IgG1, kappa, V domains shown)
VH: QVQLQQSGAELVKPGASVKLSCKASGYTFTNYDINWVRQRPEQGLEWIGWIFPGDGSTQYNEKFKGKATLTTDTSSSTAYMQLSRLTSEDSAVYFCARQTTATWFAYWGQGTLVTVSA
VL: DIVMTQSPATLSVTPGDRVSLSCRASQSISDYLHWYQQKSHESPRLLIKYASQSISGIPSRFSGSGSGSDFTLSINSVEPEDVGVYYCQNGHSFPLTFGAGTKLELKR
modifications: p-SCN-Bn-DOTA conjugated, CAR 0.8 per antibody; sites not stated
notes: Chelator conjugate, not metal-labelled
B2: 175Lu-DTPA-8H9-antibody (CAR1.4) (antibody, mouse IgG1, kappa, V domains shown)
VH: B1 VH
VL: B1 VL
modifications: p-SCN-Bn-CHX-A″-DTPA conjugated (CAR 1.4 per antibody), labelled with cold lutetium-175; sites not stated
B3: 175Lu-DTPA-8H9-antibody (CAR6.1) (antibody, mouse IgG1, kappa, V domains shown)
VH: B1 VH
VL: B1 VL
modifications: p-SCN-Bn-CHX-A″-DTPA conjugated (CAR 6.1 per antibody), labelled with cold lutetium-175; sites not stated
B4: 175Lu-DOTA-8H9-antibody (CAR6.3) (antibody, mouse IgG1, kappa, V domains shown)
VH: B1 VH
VL: B1 VL
modifications: p-SCN-Bn-DOTA conjugated (CAR 6.3 per antibody), labelled with cold lutetium-175; sites not stated
B5: 175Lu-DOTA-8H9-antibody (CAR2.6) (antibody, mouse IgG1, kappa, V domains shown)
VH: B1 VH
VL: B1 VL
modifications: p-SCN-Bn-DOTA conjugated (CAR 2.6 per antibody), labelled with cold lutetium-175; sites not stated
B6: 8H9 antibody conjugated with p-SCN-Bn-DOTA, CAR 7.5 (antibody, mouse IgG1, kappa, V domains shown)
VH: B1 VH
VL: B1 VL
modifications: p-SCN-Bn-DOTA conjugated, CAR 7.5 per antibody; sites not stated
notes: as for B1
B7: 8H9 antibody conjugated with p-SCN-Bn-DOTA, CAR 2.4 (antibody, mouse IgG1, kappa, V domains shown)
VH: B1 VH
VL: B1 VL
modifications: p-SCN-Bn-DOTA conjugated, CAR 2.4 per antibody; sites not stated
notes: as for B1
B8: 8H9 antibody conjugated with p-SCN-Bn-CHX-A″-DTPA, CAR 3.6 (antibody, mouse IgG1, kappa, V domains shown)
VH: B1 VH
VL: B1 VL
modifications: p-SCN-Bn-CHX-A″-DTPA conjugated, CAR 3.6 per antibody; sites not stated
notes: as for B1
B9: 175Lu-DTPA-8H9-antibody (CAR3) (antibody, mouse IgG1, kappa, V domains shown)
VH: B1 VH
VL: B1 VL
modifications: p-SCN-Bn-CHX-A″-DTPA conjugated (CAR 3 per antibody), labelled with cold lutetium-175; sites not stated
B10: hu8H9-3.1 (antibody, V domains shown)
VH: QVQLVQSGAEVVKPGASVKLSCKTSGYTFTNYDINWVRQRPGQGLEWIGWIFPGDDSTQYNEKFKGKATLTTDTSTSTAYMELSSLRSEDTAVYFCARQTTGTWFAYWGQGTLVTVSS
VL: B1 VL with D1E, T14S, D17E, S20T, H34Y, S60A, D70E, S74T, A100Q
B11: 8H9 antibody conjugated with p-SCN-Bn-CHX-A″-DTPA, CAR 0.6 (antibody, mouse IgG1, kappa, V domains shown)
VH: B1 VH
VL: B1 VL
modifications: p-SCN-Bn-CHX-A″-DTPA conjugated, CAR 0.6 per antibody; sites not stated
notes: Chelator conjugate, not metal-labelled; also called conj-CHX-A″-DTPA (CAR0.6)
B12: 8H9 antibody conjugated with p-SCN-Bn-CHX-A″-DTPA, CAR 1.4 (antibody, mouse IgG1, kappa, V domains shown)
VH: B1 VH
VL: B1 VL
modifications: p-SCN-Bn-CHX-A″-DTPA conjugated, CAR 1.4 per antibody; sites not stated
notes: as for B1
B13: 8H9 antibody conjugated with p-SCN-Bn-DOTA, CAR 2.6 (antibody, mouse IgG1, kappa, V domains shown)
VH: B1 VH
VL: B1 VL
modifications: p-SCN-Bn-DOTA conjugated, CAR 2.6 per antibody; sites not stated
notes: as for B1

Assays:
[1] = biological target: T1, human 2Ig-B7H3 (B7H3-2Ig-His); assay: SPR, Biacore T200, 2Ig-B7H3-His on CM5 chip, 1:1 fit; * beyond fitting limits
[2] = biological target: T1, human 2Ig-B7H3 (B7H3-2Ig-His); assay: SPR, Biacore T200, 2Ig-B7H3-His on CM5 chip, 1:1 fit
[3] = biological target: T2, human 4Ig-B7H3 (B7H3-4Ig-His); assay: SPR, Biacore T200, 4Ig-B7H3-His on CM5 chip, 1:1 fit
[4] = biological target: T1, human 2Ig-B7H3 (B7H3-2Ig-His); assay: SPR, Biacore T200, 2Ig-B7H3-His on CM5 chip, 1:1 fit; remark: listed apart in the source
Experimental: (§1) Both human B7H3 41g and 21g proteins were dissolved in PBS (Phosphate-Buffered Saline) to make 0.1 mg/ml stock solution and stored in −80° C. B7-H3 proteins were immobilized onto the CM5 sensor chip using Amine Coupling Kit. Both proteins were diluted to 10 ug/ml with 10 mM Sodium acetate, pH 5.0. […] A blank immobilized surface was used as a control
(§2) Binding Assays: [0143] 1. Antibodies were diluted in HBS-EP buffer (10 mM HEPES, 150 mM NaCl, 3 mM EDTA, 0.05% Surfactant P20, pH 7.4) at varying concentrations (25-50-100-200-400 nM) prior to analysis. […] 2. Samples (60 ul) were injected over the sensor surface at a flow rate of 30 ul/min over 2 min. [0145] 3. Following completion of the association phase, dissociation was monitored in HBS-EP buffer for 10 min at the same flow rate. […] 4. At the end of each cycle, the surface was regenerated using 10 mM NaOH at a flow rate of 50 ul/min over 2×15 sec.
(§3) The data were analyzed by the 1:1 fitting model and default parameter setting for the rate constants using the Biacore T200 Evaluation Software, and the apparent association on rate constant (kon, ka), dissociation off rate constant (koff, kd) and equilibrium dissociation constant (KD=kd/ka) were calculated.

[5] = biological target: T2, human 4Ig-B7H3 (B7H3-4Ig-His); assay: SPR, Biacore T200, 4Ig-B7H3-His on CM5 chip, 1:1 fit; remark: listed apart in the source
Experimental: as §1, §2

[6] = biological target: T1, human 2Ig-B7H3 (B7H3-2Ig-His); assay: SPR, Biacore T200, 2Ig-B7H3-His on CM5 chip, 1:1 fit; remark: listed apart in the source
Experimental: as §1, §3

[7] = biological target: T1, human 2Ig-B7H3 (B7H3-2Ig-His); assay: SPR; CHX-A''-DTPA conjugate, CAR 1.4, labeled with cold 175Lu
Experimental: as §1, §2

[8] = biological target: T2, human 4Ig-B7H3 (B7H3-4Ig-His); assay: SPR, Biacore T200, 4Ig-B7H3-His on CM5 chip, 1:1 fit; remark: listed apart in the source
Experimental: as §1, §3

[9] = biological target: T1, human 2Ig-B7H3 (B7H3-2Ig-His); assay: SPR
Experimental: as §1, §3

[10] = biological target: T2, human 4Ig-B7H3 (B7H3-4Ig-His); assay: SPR
Experimental: as §1, §3

[11] = biological target: T1, human 2Ig-B7H3 (B7H3-2Ig-His); assay: SPR, Biacore T200, 2Ig-B7H3-His on CM5 chip, 1:1 fit; CHX-A''-DTPA conjugate, CAR 6.1, labeled with cold 175Lu
Experimental: as §1, §2

[12] = biological target: T1, human 2Ig-B7H3 (B7H3-2Ig-His); assay: SPR, Biacore T200, 2Ig-B7H3-His on CM5 chip, 1:1 fit; DOTA conjugate, CAR 6.3, labeled with cold 175Lu
Experimental: as §1, §2

[13] = biological target: T1, human 2Ig-B7H3 (B7H3-2Ig-His); assay: SPR, Biacore T200, 2Ig-B7H3-His on CM5 chip, 1:1 fit; CHX-A''-DTPA conjugate, CAR 3.6, unlabeled
[14] = biological target: T1, human 2Ig-B7H3 (B7H3-2Ig-His); assay: SPR; remark: listed apart in the source
Experimental: as §1, §2

[15] = biological target: T2, human 4Ig-B7H3 (B7H3-4Ig-His); assay: SPR; remark: listed apart in the source
Experimental: as §1, §2

[16] = biological target: T1, human 2Ig-B7H3 (B7H3-2Ig-His); assay: SPR; CHX-A''-DTPA conjugate, CAR 3, labeled with cold 175Lu
Experimental: as §1, §2

[17] = biological target: T1, human 2Ig-B7H3 (B7H3-2Ig-His); assay: SPR; CHX-A''-DTPA conjugate, CAR 0.6, unlabeled
[18] = biological target: T1, human 2Ig-B7H3 (B7H3-2Ig-His); assay: SPR; CHX-A''-DTPA conjugate, CAR 1.4, unlabeled

Molecule | Kd [4] | T ½ [4] | Kd [5] | t ½ [5] | t ½ [6] | Kd [8] | t ½ [8] | other results
127I-Humanized-8H9-antibody | – | – | – | – | – | – | – | koff [1]: 7.66e-07 s⁻¹; Kd [2]: 2.12 pM; kon [2]: 361000 M⁻¹ s⁻¹; t ½ [2]: 10.5 days; Kd [3]: 0.24 nM; koff [3]: 2.68e-05 s⁻¹; kon [3]: 112000 M⁻¹ s⁻¹; t ½ [3]: 7.17 h
B1 | 0.166 nM | 39.2 h | 5.76 nM | 1.67 h | – | – | – | –
B2 | – | – | – | – | 28.1 h | 7.64 nM | 4550 s | Kd [6]: 0.217 nM; Kd [7]: < 0.316 nM; t ½ [9]: 28.1 h; Kd [10]: 7.64 nM; t ½ [10]: 4550 s
B3 | – | – | – | – | 1.82 h | 34 nM | 1440 s | t ½ [9]: 1.82 h; Kd [10]: 34 nM; t ½ [10]: 1440 s; Kd [11]: 7.21 nM
B4 | – | – | – | – | 5.39 h | 19.5 nM | 2670 s | Kd [12]: 2.34 nM
B5 | – | – | – | – | 6.11 h | 15.7 nM | 2960 s | Kd [6]: 1.74 nM
B6 | 1.71 nM | 6.58 h | 14.6 nM | 1.03 h | – | – | – | –
B7 | 0.222 nM | 41.1 h | 8.61 nM | 1.4 h | – | – | – | –
B8 | – | 1.25 h | 26.9 nM | 0.508 h | – | – | – | Kd [13]: 9.46 nM; t ½ [14]: 1.25 h; Kd [15]: 26.9 nM; t ½ [15]: 30.5 min
B9 | – | – | – | – | 5.94 h | 16.2 nM | 2920 s | Kd [6]: 1.8 nM; t ½ [9]: 5.94 h; Kd [10]: 16.2 nM; t ½ [10]: 2920 s; Kd [16]: 1.8 nM
B10 | – | – | – | – | 1.89 h | 8.87 nM | 2770 s | Kd [6]: 2.22 nM; koff [6]: 0.000102 s⁻¹; kon [6]: 45900 M⁻¹ s⁻¹; koff [8]: 0.000251 s⁻¹; kon [8]: 28300 M⁻¹ s⁻¹
B11 | 1.22 nM | 5.72 h | 10.1 nM | 0.883 h | – | – | – | Kd [17]: 1.22 nM; t ½ [14]: 5.72 h; Kd [15]: 10.1 nM; t ½ [15]: 53 min
B12 | 1.93 nM | 3.94 h | 10 nM | 1.09 h | – | – | – | Kd [18]: 1.93 nM; t ½ [14]: 3.94 h; Kd [15]: 10 nM; t ½ [15]: 65.2 min
B13 | 0.58 nM | 14 h | 7.57 nM | 1.42 h | – | – | – | –

Source: patent US20230293738A1 (Y MABS THERAPEUTICS, published 2023)
